The source of these data is article PMC7946651, “The Recombinant Luciferase of the Fungus Neonothopanus nambi: Obtaining and Properties” (Doklady. Biochemistry and Biophysics, 2021).

Substrate in this series: O=c1oc(/C=C/c2ccc(O)c(O)c2)cc(O)c1O
The series is described as follows: bioluminescence, initial light intensity, Michaelis-Menten fit. In kind it is biochemical, Neonothopanus nambi. The note with it: 50 nM enzyme, 200 mM Na-phosphate pH 8.0, 500 mM Na2SO4, 0.1% DDM, room temperature, luciferin 2 nM to 50 μM.

The term Km denotes the substrate concentration at which the rate is half of its maximum.

B1: recombinant N. nambi luciferase (nnLuz) (Neonothopanus nambi) (protein)
chain: MRINISLSSLFERLSKLSSRSIAITCGVVLASAIAFPIIRRDYQTFLEVGPSYAPQNFRGYIIVCVLSLFRQEQKGLAIYDRLPEKRRWLADLPFREGTRPSITSHIIQRQRTQLVDQEFATRELIDKVIPRVQARHTDKTFLSTSKFEFHAKAIFLLPSIPINDPLNIPSHDTVRRTKREIAHMHDYHDCTLHLALAAQDGKEVLKKGWGQRHPLAGPGVPGPPTEWTFLYAPRNEEEARVVEMIVEASIGYMTNDPAGKIVENAK
notes: expressed in Pichia pastoris GS115; membrane protein solubilized and purified in DDM
Consider B1, for which the Km came out at 1.09 ± 0.06 µM.
